# Reference: paper PMC3711072
# Target: CCR3 (UniProt P51677)
# Sequence (P51677 whole entry): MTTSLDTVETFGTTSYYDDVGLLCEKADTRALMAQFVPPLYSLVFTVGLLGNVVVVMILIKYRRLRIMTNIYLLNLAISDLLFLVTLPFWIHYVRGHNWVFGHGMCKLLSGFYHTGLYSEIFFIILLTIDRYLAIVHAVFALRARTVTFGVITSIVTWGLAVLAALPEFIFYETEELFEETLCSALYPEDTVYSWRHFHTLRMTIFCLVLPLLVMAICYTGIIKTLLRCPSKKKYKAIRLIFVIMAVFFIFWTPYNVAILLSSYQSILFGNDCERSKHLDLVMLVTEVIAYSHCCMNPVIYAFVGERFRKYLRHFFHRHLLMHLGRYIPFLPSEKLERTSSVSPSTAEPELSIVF
# CCL5, sequence (P13501 24-91): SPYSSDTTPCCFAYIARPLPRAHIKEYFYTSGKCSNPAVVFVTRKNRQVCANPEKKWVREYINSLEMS
substance,measurement,value
CCL5 (from UniProt P13501 24-91) (ligand),"reduction of CCR3 surface expression on human eosinophils (flow cytometry), 12.5 nM CCL5, 15 and 60 min",56.1%
